Earlier results in article PMC7687155.

Target: Sep15 (Homo sapiens) (UniProt O60613)
Sequence (O60613 32-165): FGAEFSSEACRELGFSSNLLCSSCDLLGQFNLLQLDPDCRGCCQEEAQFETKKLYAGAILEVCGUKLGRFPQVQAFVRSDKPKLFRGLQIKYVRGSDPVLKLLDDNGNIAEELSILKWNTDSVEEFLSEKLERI

Chain of UGGT1 (Q9NYU2 43-1555): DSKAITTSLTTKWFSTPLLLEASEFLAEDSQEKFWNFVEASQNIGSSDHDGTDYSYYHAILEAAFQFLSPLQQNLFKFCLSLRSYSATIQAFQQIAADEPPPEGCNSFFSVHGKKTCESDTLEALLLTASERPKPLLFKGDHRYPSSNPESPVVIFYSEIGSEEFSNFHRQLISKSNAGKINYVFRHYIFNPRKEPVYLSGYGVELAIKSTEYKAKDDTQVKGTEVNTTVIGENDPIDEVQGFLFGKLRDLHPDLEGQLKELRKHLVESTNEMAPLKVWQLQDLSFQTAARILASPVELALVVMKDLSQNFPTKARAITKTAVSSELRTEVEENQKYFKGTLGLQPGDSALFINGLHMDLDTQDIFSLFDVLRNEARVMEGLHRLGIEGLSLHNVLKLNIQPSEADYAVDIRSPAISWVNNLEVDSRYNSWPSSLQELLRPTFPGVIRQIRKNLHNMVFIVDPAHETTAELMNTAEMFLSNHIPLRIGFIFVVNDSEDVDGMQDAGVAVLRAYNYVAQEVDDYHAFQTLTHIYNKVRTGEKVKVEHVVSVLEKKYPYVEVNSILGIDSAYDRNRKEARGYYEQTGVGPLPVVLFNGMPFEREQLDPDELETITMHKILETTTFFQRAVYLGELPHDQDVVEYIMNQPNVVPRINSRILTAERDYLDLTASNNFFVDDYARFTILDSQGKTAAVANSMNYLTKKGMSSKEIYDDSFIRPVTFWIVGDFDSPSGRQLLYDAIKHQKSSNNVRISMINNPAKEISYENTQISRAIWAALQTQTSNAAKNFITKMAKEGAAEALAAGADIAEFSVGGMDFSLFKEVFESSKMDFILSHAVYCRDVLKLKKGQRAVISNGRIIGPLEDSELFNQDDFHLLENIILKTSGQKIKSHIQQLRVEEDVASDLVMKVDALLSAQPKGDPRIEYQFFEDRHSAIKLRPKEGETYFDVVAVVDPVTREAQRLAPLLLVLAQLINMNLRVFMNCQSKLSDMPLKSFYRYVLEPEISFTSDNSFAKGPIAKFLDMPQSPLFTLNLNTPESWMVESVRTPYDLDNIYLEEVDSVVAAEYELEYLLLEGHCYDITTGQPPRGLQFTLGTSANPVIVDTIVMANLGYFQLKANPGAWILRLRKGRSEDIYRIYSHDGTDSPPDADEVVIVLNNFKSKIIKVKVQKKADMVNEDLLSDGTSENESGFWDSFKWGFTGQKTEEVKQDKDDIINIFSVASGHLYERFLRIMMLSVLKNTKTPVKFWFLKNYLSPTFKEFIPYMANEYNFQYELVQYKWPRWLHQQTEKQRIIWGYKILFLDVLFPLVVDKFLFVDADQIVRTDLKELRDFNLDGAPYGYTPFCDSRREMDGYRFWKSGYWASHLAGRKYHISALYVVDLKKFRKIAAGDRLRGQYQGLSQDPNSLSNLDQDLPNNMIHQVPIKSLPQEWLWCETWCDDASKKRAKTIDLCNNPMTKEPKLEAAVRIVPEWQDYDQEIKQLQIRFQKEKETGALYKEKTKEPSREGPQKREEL

For UGGT1 (from UniProt Q9NYU2), the Kd is given as 20 nM.
